According to PMC9964033:

Legend:
Wdr77 = experiment: interactome comparison (volcano plot); details: CPEB3 and S240-242A expressed in mouse neuroblastoma N2A cells; read off a plot
Gls = experiment: interactome comparison (volcano plot); details: CPEB3 and S240-242A expressed in mouse neuroblastoma N2A cells; read off a plot

other: Log2(Fold Change (Mut/FL)) (Wdr77): -4.2
other: Log2(Fold Change (Mut/FL)) (Gls): 2.8
Substance: CPEB3 (full-length), expressed in mouse neuroblastoma N2A cells (from UniProt Q7TN99) S240A; S241A; S242A
